The values that follow come from patent publication US20250011737A1 (ALX ONCOLOGY, published 2025).

B1: SIRP-α variant construct (SEQ ID NO: 51), intact (other)
chain: GQYTSEVTELTREGETIIELKGGGGSGGGGSGGGGSLSGRSDNHGGGGSGGGGSEEELQIIQPDKSVLVAAGETATLRCTITSLFPVGPIQWFRGAGPGRVLIYNQRQGPFPRVTTVSDTTKRNNMDFSIRIGNITPADAGTYYCIKFRKGSPDDVEFKSGAGTELSVRAKPS
notes: uncleaved
B2: SIRP-α variant construct (SEQ ID NO: 49), intact (other)
chain: SEVTELTREGETGGGGSGGGGSGGGGSLSGRSDNHGGGGSGGGGSEEELQIIQPDKSVLVAAGETATLRCTITSLFPVGPIQWFRGAGPGRVLIYNQRQGPFPRVTTVSDTTKRNNMDFSIRIGNITPADAGTYYCIKFRKGSPDDVEFKSGAGTELSVRAKPS
notes: uncleaved
B3: SIRP-α variant construct (SEQ ID NO: 48), intact (other)
chain: SEVTELTREGETGGGGSGGGGSLSGRSDNHGGGGSGGGGSEEELQIIQPDKSVLVAAGETATLRCTITSLFPVGPIQWFRGAGPGRVLIYNQRQGPFPRVTTVSDTTKRNNMDFSIRIGNITPADAGTYYCIKFRKGSPDDVEFKSGAGTELSVRAKPS
notes: uncleaved
B4: SIRP-α variant construct (SEQ ID NO: 50), intact (other)
chain: GQYTSEVTELTREGETIIELKGGGGSGGGGSLSGRSDNHGGGGSGGGGSEEELQIIQPDKSVLVAAGETATLRCTITSLFPVGPIQWFRGAGPGRVLIYNQRQGPFPRVTTVSDTTKRNNMDFSIRIGNITPADAGTYYCIKFRKGSPDDVEFKSGAGTELSVRAKPS
notes: uncleaved
B5: SIRP-α variant construct (SEQ ID NO: 54), intact (other)
chain: QLLFNKTKSVEFTFSNDTVVIPCFVTNMEAQNTTEVYVKWKFKGRDIYTFDGALNKSTVPTDFSSAKIEVSQLLKGDASLKMDKSDAVSHTGNYTCEVTELTREGETIIELKYRVVSGGGGSGGGGSGGGGSGGGGSGGGGSLSGRSDNHGGGGSGGGGSEEELQIIQPDKSVLVAAGETATLRCTITSLFPVGPIQWFRGAGPGRVLIYNQRQGPFPRVTTVSDTTKRNNMDFSIRIGNITPADAGTYYCIKFRKGSPDDVEFKSGAGTELSVRAKPS
notes: uncleaved
B6: SIRP-α variant construct (SEQ ID NO: 53), intact (other)
chain: QLLFNKTKSVEFTFSNDTVVIPCFVTNMEAQNTTEVYVKWKFKGRDIYTFDGALNKSTVPTDFSSAKIEVSQLLKGDASLKMDKSDAVSHTGNYTCEVTELTREGETIIELKYRVVSGGGGSGGGGSGGGGSGGGGSLSGRSDNHGGGGSGGGGSEEELQIIQPDKSVLVAAGETATLRCTITSLFPVGPIQWFRGAGPGRVLIYNQRQGPFPRVTTVSDTTKRNNMDFSIRIGNITPADAGTYYCIKFRKGSPDDVEFKSGAGTELSVRAKPS
notes: uncleaved
B7: SIRP-α variant construct (SEQ ID NO: 52), intact (other)
chain: QLLFNKTKSVEFTFSNDTVVIPCFVTNMEAQNTTEVYVKWKFKGRDIYTFDGALNKSTVPTDFSSAKIEVSQLLKGDASLKMDKSDAVSHTGNYTCEVTELTREGETIIELKYRVVSGGGGSGGGGSGGGGSLSGRSDNHGGGGSGGGGSEEELQIIQPDKSVLVAAGETATLRCTITSLFPVGPIQWFRGAGPGRVLIYNQRQGPFPRVTTVSDTTKRNNMDFSIRIGNITPADAGTYYCIKFRKGSPDDVEFKSGAGTELSVRAKPS
notes: uncleaved
B8: SIRP-α variant construct (SEQ ID NO: 60), intact (other)
chain: QLLFNKTKSVEFTFSNDTVVIPCFVTNMEAQNTTEVYVKWKFKGRDIYTFDGALNKSTVPTDFSSAKIEVSQLLKGDASLKMDKSDAVSHTGNYTCEVTEQTREGETIIELKYRVVSGGGGSGGGGSGGGGSGGGGSLSGRSDNHGGGGSGGGGSEEELQIIQPDKSVLVAAGETATLRCTITSLFPVGPIQWFRGAGPGRVLIYNQRQGPFPRVTTVSDTTKRNNMDFSIRIGNITPADAGTYYCIKFRKGSPDDVEFKSGAGTELSVRAKPS
notes: uncleaved
B9: SIRP-α variant construct (SEQ ID NO: 61), intact (other)
chain: QLLFNKTKSVEFTFSNDTVVIPCFVTNMEAQNTTEVYVKWKFKGRDIYTFDGALNKSTVPTDFSSAKIEVSQLLKGDASLKMDKSDAVSHTGNYTCEVTEYTREGETIIELKYRVVSGGGGSGGGGSGGGGSGGGGSLSGRSDNHGGGGSGGGGSEEELQIIQPDKSVLVAAGETATLRCTITSLFPVGPIQWFRGAGPGRVLIYNQRQGPFPRVTTVSDTTKRNNMDFSIRIGNITPADAGTYYCIKFRKGSPDDVEFKSGAGTELSVRAKPS
notes: uncleaved
B10: SIRP-α variant construct (SEQ ID NO: 62), intact (other)
chain: QLLFNKTKSVEFTFSNDTVVIPCFVTNMEAQNTTEVYVKWKFKGRDIYTFDGALNKSTVPTDFSSAKIEVSQLLKGDASLKMDKSDAVSHTGNYTCEVTELQREGETIIELKYRVVSGGGGSGGGGSGGGGSGGGGSLSGRSDNHGGGGSGGGGSEEELQIIQPDKSVLVAAGETATLRCTITSLFPVGPIQWFRGAGPGRVLIYNQRQGPFPRVTTVSDTTKRNNMDFSIRIGNITPADAGTYYCIKFRKGSPDDVEFKSGAGTELSVRAKPS
notes: uncleaved
B11: SIRP-α variant construct (SEQ ID NO: 63), intact (other)
chain: QLLFNKTKSVEFTFSNDTVVIPCFVTNMEAQNTTEVYVKWKFKGRDIYTFDGALNKSTVPTDFSSAKIEVSQLLKGDASLKMDKSDAVSHTGNYTCEVTELHREGETIIELKYRVVSGGGGSGGGGSGGGGSGGGGSLSGRSDNHGGGGSGGGGSEEELQIIQPDKSVLVAAGETATLRCTITSLFPVGPIQWFRGAGPGRVLIYNQRQGPFPRVTTVSDTTKRNNMDFSIRIGNITPADAGTYYCIKFRKGSPDDVEFKSGAGTELSVRAKPS
notes: uncleaved
B12: SIRP-α variant construct (SEQ ID NO: 58), intact (other)
chain: GQLLFNKTKSVEFTFSNDTVVIPCFVTNMEAQNTTEVYVKWKFKGRDIYTFDGALNKSTVPTDFSSAKIEVSQLLKGDASLKMDKSDAVSHTGNYTCEVTELTREGETIIELKYRVVSGGGGSGGGGSGGGGSGGGGSLSGRSDNHGGGGSGGGGSEEELQIIQPDKSVLVAAGETATLRCTITSLFPVGPIQWFRGAGPGRVLIYNQRQGPFPRVTTVSDTTKRNNMDFSIRIGNITPADAGTYYCIKFRKGSPDDVEFKSGAGTELSVRAKPS
notes: uncleaved
B13: SIRP-α variant construct (SEQ ID NO: 59), intact (other)
chain: GQLLFNKTKSVEFTFSNDTVVIPCFVTNMEAQNTTEVYVKWKFKGRDIYTFDGALNKSTVPTDFSSAKIEVSQLLKGDASLKMDKSDAVSHTGNYTCEVTELTREGETIIELKYRVVSGGGGSGGGGSGGGGSGGGGSGGGGSLSGRSDNHGGGGSGGGGSEEELQIIQPDKSVLVAAGETATLRCTITSLFPVGPIQWFRGAGPGRVLIYNQRQGPFPRVTTVSDTTKRNNMDFSIRIGNITPADAGTYYCIKFRKGSPDDVEFKSGAGTELSVRAKPS
notes: uncleaved
B14: SIRP-α variant construct (SEQ ID NO: 57), intact (other)
chain: GQLLFNKTKSVEFTFSNDTVVIPCFVTNMEAQNTTEVYVKWKFKGRDIYTFDGALNKSTVPTDFSSAKIEVSQLLKGDASLKMDKSDAVSHTGNYTCEVTELTREGETIIELKYRVVSGGGGSGGGGSGGGGSLSGRSDNHGGGGSGGGGSEEELQIIQPDKSVLVAAGETATLRCTITSLFPVGPIQWFRGAGPGRVLIYNQRQGPFPRVTTVSDTTKRNNMDFSIRIGNITPADAGTYYCIKFRKGSPDDVEFKSGAGTELSVRAKPS
notes: uncleaved
B15: SIRP-α variant (SEQ ID NO: 31) (receptor)
chain: EEELQIIQPDKSVLVAAGETATLRCTITSLFPVGPIQWFRGAGPGRVLIYNQRQGPFPRVTTVSDTTKRNNMDFSIRIGNITPADAGTYYCIKFRKGSPDDVEFKSGAGTELSVRAKPS
notes: also called SIRP-α variant alone

The target in the first experiment is T1, human CD47-hFc (R & D Systems, catalog number 4670-CD) (human, UniProt Q08722 19-139).
T1 construct: Bought; immobilized by amine coupling on a CM4 chip (370 RU); also called CD47 on the chip; not shown: human Fc (hFc) of a bought protein
T1 sequence (Q08722 19-139 limits assumed): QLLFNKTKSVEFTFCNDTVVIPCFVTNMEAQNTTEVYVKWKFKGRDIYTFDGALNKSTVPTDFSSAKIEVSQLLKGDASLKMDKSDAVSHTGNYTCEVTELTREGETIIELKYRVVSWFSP
Briefly: SPR (Biacore T100), CD47-hFc immobilized on CM4 chip, intact construct at 100 nM.
With B1, the binding result is “binds”. Take B2: the binding result is “binds”. Turning to B3, the binding result is on record as “binds”. Still for that read-out and setting: to B4 belongs “binds”.

Another experiment has as its target T1, human CD47-hFc (R & D Systems, catalog …). Briefly: SPR (Biacore T100), CD47-hFc immobilized on CM4 chip, intact construct injected.
As for B5, the binding result is “no binding (tested: 100 nM)”. On the same count and under the same terms, then B6, with “no binding (tested: 100 nM)”. Turning to B7, the binding result is “no binding (tested: 100 nM)”.

For the next experiment the target is unchanged. Put plainly: SPR (Biacore T100), CD47-hFc immobilized on CM4 chip, intact construct injected (FIG. 5B). On the technique in general: SPR reads the build-up and loss of mass on a sensor chip optically.
Regarding B8, the binding result was “no binding (tested: 100 nM)”. As to B9, the binding result is “no binding (tested: 100 nM)”. As to B10, the binding result is given as “no binding (tested: 100 nM)”.

With B11, the binding result is reported as “no binding (tested: 100 nM)”. Consider B12, for which the binding result is “no binding (tested: 100 nM)”.

Take B13: the binding result was “no binding (tested: 100 nM)”. On to B14, for which the binding result is “no binding (tested: 100 nM)”.

Another experiment addresses T2, CD47 IgSF domain having amino acids 1-117 and C15S, relative to wild-type CD47 (SEQ ID NO: 35) (human, UniProt Q08722 19-135).
T2 construct: in the assay it was tethered to, or released by cleavage from, the SIRP-α variant (it then still carries spacer and linker residues); also called IgSF domain of CD47
Briefly: inferred from SPR of cleaved constructs SEQ ID NOs: 52-54 on CD47-hFc.
In the case of B15, the binding result was “binds”.
